For the assay, the target named is Human canonical CRB2 (Crumbs homolog 2), Q5IJ48-1. Nature of the assay: co-IP (FLAG-IP) and Western blot quantification. To be noted: chain shown with the change; co-transfected in HEK293T cells; three biological replicates; parent: est. 1.0; read off a plot.
Sequence of Human canonical CRB2 (Crumbs homolog 2), Q5IJ48-1 (Q5IJ48 29-1285): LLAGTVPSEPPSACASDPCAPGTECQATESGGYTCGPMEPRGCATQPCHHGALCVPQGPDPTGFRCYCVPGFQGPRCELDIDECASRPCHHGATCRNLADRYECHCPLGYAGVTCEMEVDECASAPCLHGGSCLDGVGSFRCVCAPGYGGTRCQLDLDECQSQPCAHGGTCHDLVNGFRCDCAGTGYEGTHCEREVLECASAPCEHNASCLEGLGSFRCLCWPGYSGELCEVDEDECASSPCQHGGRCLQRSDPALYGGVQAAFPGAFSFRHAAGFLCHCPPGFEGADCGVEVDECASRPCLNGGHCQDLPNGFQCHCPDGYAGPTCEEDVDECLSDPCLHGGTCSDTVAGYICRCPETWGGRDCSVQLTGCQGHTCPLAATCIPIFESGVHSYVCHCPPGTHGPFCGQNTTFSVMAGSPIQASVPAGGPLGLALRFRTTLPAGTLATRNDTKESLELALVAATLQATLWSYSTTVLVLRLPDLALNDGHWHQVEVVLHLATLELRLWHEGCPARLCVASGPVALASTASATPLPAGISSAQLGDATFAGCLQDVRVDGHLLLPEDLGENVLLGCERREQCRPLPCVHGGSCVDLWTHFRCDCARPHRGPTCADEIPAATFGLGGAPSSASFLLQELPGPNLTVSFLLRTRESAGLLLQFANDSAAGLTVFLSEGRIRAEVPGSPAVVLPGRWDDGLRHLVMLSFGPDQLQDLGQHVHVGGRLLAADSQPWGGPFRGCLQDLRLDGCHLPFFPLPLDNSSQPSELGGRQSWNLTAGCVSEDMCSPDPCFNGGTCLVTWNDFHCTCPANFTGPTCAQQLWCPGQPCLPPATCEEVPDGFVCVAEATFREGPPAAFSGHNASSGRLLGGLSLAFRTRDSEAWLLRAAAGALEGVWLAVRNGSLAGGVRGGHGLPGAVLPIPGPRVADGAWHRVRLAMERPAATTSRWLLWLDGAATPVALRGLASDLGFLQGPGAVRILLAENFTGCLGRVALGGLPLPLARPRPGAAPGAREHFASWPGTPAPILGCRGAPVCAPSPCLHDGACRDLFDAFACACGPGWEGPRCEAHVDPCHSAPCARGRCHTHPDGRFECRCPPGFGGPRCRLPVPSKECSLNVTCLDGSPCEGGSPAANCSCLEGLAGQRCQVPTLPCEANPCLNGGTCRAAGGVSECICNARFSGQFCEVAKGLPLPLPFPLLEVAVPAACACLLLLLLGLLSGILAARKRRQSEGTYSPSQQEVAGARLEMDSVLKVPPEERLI

B1: Human canonical CRB1 (Crumbs homolog 1), P82279 p.C681Y (protein)
chain: FCNKNNTRCLSNSCQNNSTCKDFSKDNDCSCSDTANNLDKDCDNMKDPCFSNPCQGSATCVNTPGERSFLCKCPPGYSGTICETTIGSCGKNSCQHGGICHQDPIYPVCICPAGYAGRFCEIDHDECASSPCQNGAVCQDGIDGYSCFCVPGYQGRHCDLEVDECASDPCKNEATCLNEIGRYTCICPHNYSGVNCELEIDECWSQPCLNGATCQDALGAYFCDCAPGFLGDHCELNTDECASQPCLHGGLCVDGENRYSCNCTGSGFTGTHCETLMPLCWSKPCHNNATCEDSVDNYTCHCWPGYTGAQCEIDLNECNSNPCQSNGECVELSSEKQYGRITGLPSSFSYHEASGYVCICQPGFTGIHCEEDVNECSSNPCQNGGTCENLPGNYTCHCPFDNLSRTFYGGRDCSDILLGCTHQQCLNNGTCIPHFQDGQHGFSCLCPSGYTGSLCEIATTLSFEGDGFLWVKSGSVTTKGSVCNIALRFQTVQPMALLLFRSNRDVFVKLELLSGYIHLSIQVNNQSKVLLFISHNTSDGEWHFVEVIFAEAVTLTLIDDSCKEKCIAKAPTPLESDQSICAFQNSFLGGLPVGMTSNGVALLNFYNMPSTPSFVGCLQDIKIDWNHITLENISSGSSLNVKAGCVRKDWCESQPYQSRGRCINLWLSYQCDCHRPYEGPNCLREYVAGRFGQDDSTGYVIFTLDESYGDTISLSMFVRTLQPSGLLLALENSTYQYIRVWLERGRLAMLTPNSPKLVVKFVLNDGNVHLISLKIKPYKIELYQSSQNLGFISASTWKIEKGDVIYIGGLPDKQETELNGGFFKGCIQDVRLNNQNLEFFPNPTNNASLNPVLVNVTQGCAGDNSCKSNPCHNGGVCHSRWDDFSCSCPALTSGKACEEVQWCGFSPCPHGAQCQPVLQGFECIANAVFNGQSGQILFRSNGNITRELTNITFGFRTRDANVIILHAEKEPEFLNISIQDSRLFFQLQSGNSFYMLSLTSLQSVNDGTWHEVTLSMTDPLSQTSRWQMEVDNETPFVTSTIATGSLNFLKDNTDIYVGDRAIDNIKGLQGCLSTIEIGGIYLSYFENVHGFINKPQEEQFLKISTNSVVTGCLQLNVCNSNPCLHGGNCEDIYSSYHCSCPLGWSGKHCELNIDECFSNPCIHGNCSDRVAAYHCTCEPGYTGVNCEVDIDNCQSHQCANGATCISHTNGYSCLCFGNFTGKFCRQSRLPSTVCGNEKTNLTCYNGGNCTEFQTELKCMCRPGFTGEWCEKDIDECASDPCVNGGLCQDLLNKFQCLCDVAFAGERCEVDLADDLISDIFTTIGSVTVALLLILLLAIVASVVTSNKRATQGTYSPSRQEKEGSRVEMWNLMPPPAMERLI
Take B1: the ratio to parent stood at 1.1.

B2: Human canonical CRB1 (Crumbs homolog 1), P82279 p.C1321S (protein)
chain: FCNKNNTRCLSNSCQNNSTCKDFSKDNDCSCSDTANNLDKDCDNMKDPCFSNPCQGSATCVNTPGERSFLCKCPPGYSGTICETTIGSCGKNSCQHGGICHQDPIYPVCICPAGYAGRFCEIDHDECASSPCQNGAVCQDGIDGYSCFCVPGYQGRHCDLEVDECASDPCKNEATCLNEIGRYTCICPHNYSGVNCELEIDECWSQPCLNGATCQDALGAYFCDCAPGFLGDHCELNTDECASQPCLHGGLCVDGENRYSCNCTGSGFTGTHCETLMPLCWSKPCHNNATCEDSVDNYTCHCWPGYTGAQCEIDLNECNSNPCQSNGECVELSSEKQYGRITGLPSSFSYHEASGYVCICQPGFTGIHCEEDVNECSSNPCQNGGTCENLPGNYTCHCPFDNLSRTFYGGRDCSDILLGCTHQQCLNNGTCIPHFQDGQHGFSCLCPSGYTGSLCEIATTLSFEGDGFLWVKSGSVTTKGSVCNIALRFQTVQPMALLLFRSNRDVFVKLELLSGYIHLSIQVNNQSKVLLFISHNTSDGEWHFVEVIFAEAVTLTLIDDSCKEKCIAKAPTPLESDQSICAFQNSFLGGLPVGMTSNGVALLNFYNMPSTPSFVGCLQDIKIDWNHITLENISSGSSLNVKAGCVRKDWCESQPCQSRGRCINLWLSYQCDCHRPYEGPNCLREYVAGRFGQDDSTGYVIFTLDESYGDTISLSMFVRTLQPSGLLLALENSTYQYIRVWLERGRLAMLTPNSPKLVVKFVLNDGNVHLISLKIKPYKIELYQSSQNLGFISASTWKIEKGDVIYIGGLPDKQETELNGGFFKGCIQDVRLNNQNLEFFPNPTNNASLNPVLVNVTQGCAGDNSCKSNPCHNGGVCHSRWDDFSCSCPALTSGKACEEVQWCGFSPCPHGAQCQPVLQGFECIANAVFNGQSGQILFRSNGNITRELTNITFGFRTRDANVIILHAEKEPEFLNISIQDSRLFFQLQSGNSFYMLSLTSLQSVNDGTWHEVTLSMTDPLSQTSRWQMEVDNETPFVTSTIATGSLNFLKDNTDIYVGDRAIDNIKGLQGCLSTIEIGGIYLSYFENVHGFINKPQEEQFLKISTNSVVTGCLQLNVCNSNPCLHGGNCEDIYSSYHCSCPLGWSGKHCELNIDECFSNPCIHGNCSDRVAAYHCTCEPGYTGVNCEVDIDNCQSHQCANGATCISHTNGYSCLCFGNFTGKFCRQSRLPSTVCGNEKTNLTCYNGGNCTEFQTELKCMCRPGFTGEWCEKDIDECASDPCVNGGLCQDLLNKFQSLCDVAFAGERCEVDLADDLISDIFTTIGSVTVALLLILLLAIVASVVTSNKRATQGTYSPSRQEKEGSRVEMWNLMPPPAMERLI
Regarding B2, the ratio to parent came to 1.

B3: Human canonical CRB1 (Crumbs homolog 1), P82279 p.C948Y (protein)
chain: FCNKNNTRCLSNSCQNNSTCKDFSKDNDCSCSDTANNLDKDCDNMKDPCFSNPCQGSATCVNTPGERSFLCKCPPGYSGTICETTIGSCGKNSCQHGGICHQDPIYPVCICPAGYAGRFCEIDHDECASSPCQNGAVCQDGIDGYSCFCVPGYQGRHCDLEVDECASDPCKNEATCLNEIGRYTCICPHNYSGVNCELEIDECWSQPCLNGATCQDALGAYFCDCAPGFLGDHCELNTDECASQPCLHGGLCVDGENRYSCNCTGSGFTGTHCETLMPLCWSKPCHNNATCEDSVDNYTCHCWPGYTGAQCEIDLNECNSNPCQSNGECVELSSEKQYGRITGLPSSFSYHEASGYVCICQPGFTGIHCEEDVNECSSNPCQNGGTCENLPGNYTCHCPFDNLSRTFYGGRDCSDILLGCTHQQCLNNGTCIPHFQDGQHGFSCLCPSGYTGSLCEIATTLSFEGDGFLWVKSGSVTTKGSVCNIALRFQTVQPMALLLFRSNRDVFVKLELLSGYIHLSIQVNNQSKVLLFISHNTSDGEWHFVEVIFAEAVTLTLIDDSCKEKCIAKAPTPLESDQSICAFQNSFLGGLPVGMTSNGVALLNFYNMPSTPSFVGCLQDIKIDWNHITLENISSGSSLNVKAGCVRKDWCESQPCQSRGRCINLWLSYQCDCHRPYEGPNCLREYVAGRFGQDDSTGYVIFTLDESYGDTISLSMFVRTLQPSGLLLALENSTYQYIRVWLERGRLAMLTPNSPKLVVKFVLNDGNVHLISLKIKPYKIELYQSSQNLGFISASTWKIEKGDVIYIGGLPDKQETELNGGFFKGCIQDVRLNNQNLEFFPNPTNNASLNPVLVNVTQGCAGDNSCKSNPCHNGGVCHSRWDDFSCSCPALTSGKACEEVQWCGFSPCPHGAQCQPVLQGFEYIANAVFNGQSGQILFRSNGNITRELTNITFGFRTRDANVIILHAEKEPEFLNISIQDSRLFFQLQSGNSFYMLSLTSLQSVNDGTWHEVTLSMTDPLSQTSRWQMEVDNETPFVTSTIATGSLNFLKDNTDIYVGDRAIDNIKGLQGCLSTIEIGGIYLSYFENVHGFINKPQEEQFLKISTNSVVTGCLQLNVCNSNPCLHGGNCEDIYSSYHCSCPLGWSGKHCELNIDECFSNPCIHGNCSDRVAAYHCTCEPGYTGVNCEVDIDNCQSHQCANGATCISHTNGYSCLCFGNFTGKFCRQSRLPSTVCGNEKTNLTCYNGGNCTEFQTELKCMCRPGFTGEWCEKDIDECASDPCVNGGLCQDLLNKFQCLCDVAFAGERCEVDLADDLISDIFTTIGSVTVALLLILLLAIVASVVTSNKRATQGTYSPSRQEKEGSRVEMWNLMPPPAMERLI
B3: the ratio to parent came out at 1.

Values taken from publication PMC10992996.
